In patent US20220112244A1 (DOMPE FARMACEUTICI S P A, published 2022):
No end group written: not given here.

B1: peptide of SEQ ID NO: 135 (peptide)
peptide: Ac-VHFQFPADLWEWFRR-NH2
B2: peptide of SEQ ID NO: 141 (peptide)
peptide: Ac-VHFQFPQDWWEWFRR-NH2
B3: peptide of SEQ ID NO: 9 (peptide)
peptide: Ac-IHVTIPADLWDWIRK-NH2
B4: peptide of SEQ ID NO: 10 (peptide)
peptide: Ac-IHVTIPADLWDWINR-NH2
B5: peptide of SEQ ID NO: 124 (peptide)
peptide: Ac-VHFTFPQDLWEWVRR-NH2
B6: peptide of SEQ ID NO: 123 (peptide)
peptide: Ac-VHVTIPAEWWEWVRR-NH2
B7: peptide of SEQ ID NO: 128 (peptide)
peptide: Ac-VHFTFPQDLWEFVRR-NH2
B8: peptide of SEQ ID NO: 130 (peptide)
peptide: Ac-VHFQFPADLWEWVRR-NH2
B9: peptide of SEQ ID NO: 133 (peptide)
peptide: Ac-VHFQFPADLWNWVRR-NH2
B10: peptide of SEQ ID NO: 145 (peptide)
peptide: Ac-VHVTIPQDFWEWFRR-NH2
B11: BIO-5 (peptide)
peptide: {ascorbic acid}-IMVTIPADLYEWIEE
B12: peptide of SEQ ID NO: 39 (peptide)
peptide: Ac-VPGDGVMVTIPADLYEWIEE-NH2
B13: peptide of SEQ ID NO: 150 (peptide)
peptide: Ac-VHFQFPQDLWEWVRR-NH2
B14: peptide of SEQ ID NO: 160 (peptide)
peptide: Ac-LHVTIPADLWDWINK-NH2
B15: peptide of SEQ ID NO: 127 (peptide)
peptide: Ac-VHFTFPQDLWNWVRR-NH2
B16: peptide of SEQ ID NO: 14 (peptide)
peptide: Ac-IHVTIPADLWDWVRR-NH2
B17: peptide of SEQ ID NO: 152 (peptide)
peptide: Ac-VHFTIPADLYNFVRR-NH2
B18: peptide of SEQ ID NO: 153 (peptide)
peptide: Ac-VHFQIPQDLYNFFRR-NH2
B19: peptide of SEQ ID NO: 134 (peptide)
peptide: Ac-VHFQFPADLWEFVRR-NH2
B20: peptide of SEQ ID NO: 162 (peptide)
peptide: Ac-IRVTIPADLWDWINK-NH2
B21: peptide of SEQ ID NO: 154 (peptide)
peptide: Ac-VHFQFPQEWYNWFRR-NH2
B22: BIO-3 (peptide)
peptide: {N‑acetylglucosamine-N‑acetylmuramic acid}-IMVTIPADLYEWIEE
B23: peptide of SEQ ID NO: 140 (peptide)
peptide: Ac-VHFQFPQDLWEFVRR-NH2
B24: peptide of SEQ ID NO: 148 (peptide)
peptide: Ac-VHFTFPQDLYNFVRR-NH2
B25: peptide of SEQ ID NO: 120 (peptide)
peptide: Ac-VHVTIPADLWEFVRR-NH2
B26: peptide of SEQ ID NO: 122 (peptide)
peptide: Ac-VHVYIPAELWEWVRR-NH2
B27: peptide of SEQ ID NO: 151 (peptide)
peptide: Ac-VHFTIPQDLYNWRR-NH2
B28: peptide of SEQ ID NO: 142 (peptide)
peptide: Ac-VHFTIPADFWEWFRR-NH2
B29: peptide of SEQ ID NO: 159 (peptide)
peptide: Ac-GHVTIPADLWDWINK-NH2
B30: peptide of SEQ ID NO: 12 (peptide)
peptide: Ac-IHVTIPADLWDWINE-NH2
B31: peptide of SEQ ID NO: 4 (peptide)
peptide: Ac-VMVTIPADLWDWINK-NH2
B32: peptide of SEQ ID NO: 119 (peptide)
peptide: Ac-VHVTIPADLWNWVRR-NH2
B33: BIO-4 (peptide)
peptide: {capric acid}-IMVTIPADLYEWIEE
B34: peptide of SEQ ID NO: 37 (peptide)
peptide: Ac-VMVTIPADLYEWIEEVPGAGVPGAG-NH2
B35: peptide of SEQ ID NO: 139 (peptide)
peptide: Ac-VHFQFPQDWWNWVRR-NH2
B36: peptide of SEQ ID NO: 157 (peptide)
peptide: Ac-VPGAGVPGAGIHVTIPA-NH2
B37: peptide of SEQ ID NO: 155 (peptide)
peptide: Ac-VRFQFGQEWYNFFRR-NH2
B38: peptide of SEQ ID NO: 143 (peptide)
peptide: Ac-VHVQIPADFWEWFRR-NH2
B39: peptide of SEQ ID NO: 121 (peptide)
peptide: Ac-VHVTIPADLWEWFRR-NH2
B40: peptide of SEQ ID NO: 156 (peptide)
peptide: Ac-VPGAGVPGAGIHVTI-NH2
B41: peptide of SEQ ID NO: 126 (peptide)
peptide: Ac-VHFTIPQDLYEWVRR-NH2
B42: BIO-1 (peptide)
peptide: {N‑acetylmuramic acid}-IMVTIPADLYEWIEE
B43: peptide of SEQ ID NO: 158 (peptide)
peptide: Ac-AHVTIPADLWDWINK-NH2
B44: peptide of SEQ ID NO: 129 (peptide)
peptide: Ac-VHFTFPQDLWEWFRR-NH2
B45: peptide of SEQ ID NO: 146 (peptide)
peptide: Ac-VHFTIPQDWWEWVRR-NH2
B46: peptide of SEQ ID NO: 6 (peptide)
peptide: Ac-IHVTIPADLYDWINK-NH2
B47: peptide of SEQ ID NO: 40 (peptide)
peptide: Ac-VMVTIPADLYEWIEEVPGDG-NH2
B48: peptide of SEQ ID NO: 147 (peptide)
peptide: Ac-VHFTFPQDLYNWVRR-NH2
B49: peptide of SEQ ID NO: 161 (peptide)
peptide: Ac-PHVTIPADLWDWINK-NH2
B50: BIO-2 (peptide)
peptide: IMVTIPADLYEWIEEQ-{N‑acetylglucosamine}
B51: peptide of SEQ ID NO: 163 (peptide)
peptide: Ac-IKVTIPADLWDWINK-NH2
B52: peptide of SEQ ID NO: 8 (peptide)
peptide: Ac-IHVTIPADLWDWVNK-NH2
B53: peptide of SEQ ID NO: 137 (peptide)
peptide: Ac-VHFQIPQDWWEWVRR-NH2
B54: peptide of SEQ ID NO: 144 (peptide)
peptide: Ac-VHVTFPADLWEWFRR-NH2
B55: peptide of SEQ ID NO: 149 (peptide)
peptide: Ac-VHVTIPADLYNFFRR-NH2
B56: peptide of SEQ ID NO: 125 (peptide)
peptide: Ac-VHFTFPQDFWEWVRR-NH2
B57: peptide of SEQ ID NO: 7 (peptide)
peptide: Ac-IHVTIPADLYEWINK-NH2
modifications: not fully specified

What follows are binders tested against T1, IL-17A (agonist in the IL-17RA/IL17RC dimerization assay) (UniProt Q16552 24-155) (assay: cell-based or functional assay).
T1 sequence (Q16552 24-155 limits assumed): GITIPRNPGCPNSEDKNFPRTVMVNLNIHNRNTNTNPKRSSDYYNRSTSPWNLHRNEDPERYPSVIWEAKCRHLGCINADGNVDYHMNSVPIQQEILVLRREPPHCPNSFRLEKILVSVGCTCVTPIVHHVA

Row | IC50 in IL-17RA/IL7RC dimerization assay [nM] | Binder
1 | < 500 | B1
2 | < 500 | B2
3 | < 300 | B3
4 | < 400 | B4
5 | < 500 | B5
6 | < 500 | B6
7 | < 500 | B7
8 | < 500 | B8
9 | < 500 | B9
10 | < 500 | B10
11 | < 1000 | B11
12 | < 200 | B12
13 | < 500 | B13
14 | < 10000 | B14
15 | < 500 | B15
16 | < 400 | B16
17 | < 500 | B17
18 | < 500 | B18
19 | < 500 | B19

Row | IC50 in IL-17RA/IL7RC dimerization assay [nM] | Binder
20 | < 10000 | B20
21 | < 500 | B21
22 | < 1000 | B22
23 | < 500 | B23
24 | < 500 | B24
25 | < 500 | B25
26 | < 500 | B26
27 | < 500 | B27
28 | < 500 | B28
29 | < 10000 | B29
30 | < 200 | B30
31 | < 100 | B31
32 | < 500 | B32
33 | < 1000 | B33
34 | < 200 | B34
35 | < 500 | B35
36 | < 500 | B36
37 | < 500 | B37
38 | < 500 | B38

Row | IC50 in IL-17RA/IL7RC dimerization assay [nM] | Binder
39 | < 500 | B39
40 | < 500 | B40
41 | < 500 | B41
42 | < 1000 | B42
43 | < 10000 | B43
44 | < 500 | B44
45 | < 500 | B45
46 | < 400 | B46
47 | < 200 | B47
48 | < 500 | B48
49 | < 10000 | B49
50 | < 1000 | B50
51 | < 10000 | B51
52 | < 200 | B52
53 | < 500 | B53
54 | < 500 | B54
55 | < 500 | B55
56 | < 500 | B56

Target: T1, IL-17A (agonist in the IL-17RA/IL17RC …)
Assay: cell-based or functional assay
Remark: another data set of the same source

Row | IC50, % inhibition of IL-17A-induced IL-17RA/IL17RC dimerization (PathHunter cytokine receptor assay) [nM] | Binder
57 | 103 | B57
58 | 263 | B4
59 | 158 | B12
60 | 380 | B16
61 | 118 | B30
62 | 203 | B31
63 | 188 | B34
64 | 240 | B47
65 | 189 | B52
